The values that follow come from a protein production outcome set (Wang et al. 2014).
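Also: failed if final PepcDB status was selected cloned or expressed and not failed if soluble or beyond.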

The nature of this data set: label from the status in PepcDB records.
Turning to “MSTAGLFSIFLIGIASNLDNAGVGIAYGIRKIRISWFNNFIIAFFGFLFTLLAGFFGNWIALFISEFTANLIGAIVLGIIGVFILCQPFLGQRNTVGSKDGNVLMGILRDPEKADFDGSKTISFSEAIVLGIALSINNIAGGFDAGITNLNLWLTATISGVFSFICISGFAYVGKRFLAEYLGKWATIIAEVLLILIGIDQLL”, the protein production entry was “failed”.

In the case of “MQTVKYLARNSGFLFLNGIATNILSFFAMLYIARHLGPEDYGIFSFAFAFIYFFSFIPDMGVHQILVREAAKEPGKAGKLIGNGTIIKFFLSFVAIILAFILINLIGFPSSTKNALYIASLGLLISGTGAYGIIYEAKLRMEYSLLFNLVSRVCLLLFVFLAVAINSTLNTFIFASVSATFVHNLLMVLFSKKLVKVSFNPDITLIKQLLREAIPIAIASVFTVVYFKIDVLMLSFLRGDAEVGFYSAAYRLTDALVFLPSAFTTSTFPLMSRYFKESFNSFSFAYARTFKYLFASGLLIAVLVTFASEKIILIFYGPEYQNSVIALQILIWATAITFISVLISSTCVSSGNQQIISKTAILAALLNVSLNLILIPSTGYIGAAVATVLSVLGSMVFGLIWVHKNLLHENPLKGTISPIIGAGVVSLFIILLEPYADIMFLSAVSVPLFAAVLYTTGWIDSDDKTIFLKLFPASRLNSKKF”, the protein production result is recorded as “failed”.

Take “MRRQELARQCGERSKKDNKKGSAKAKKMEQMRNESRASTPSKDSNTSQSTASSTPTTSAGPGSKSEAGSTGTTTTNSTANSTTSRAHRKSTQSTPSTARPGTPSDKKEDPAAAETTEEEGPVAPKKKRMSEQRPSLTGSDVAEKPLPPTT”: the protein production result is given as “failed”.

For “MQFIWAALGLVCVALALIGVALPLLPTVPFLLLAAFFFARSSERLHTWLVTHRLFGPMILDWQQSGAIRPGAKKAATLSIAAVFGLSLVFAVPSHVLLIQAVVLSGVLIFIWTRPNG”, the protein production result is given as “failed”.

With “MLKTTKKSLLVFMGVFFLIFGVDQAIKYAILEGFRYESLMIDIVLVFNKGVAFSLLSFLEGGLKYLQILLILGLFIFLMRQRELFKNHAIEFGMVFGAGVSNVLDRFVHGGVVDYVYYHYGFDFAIFNFADVMIDVGVGVLLLKQFFFKQKQNKIKA”, the protein production result is listed as “failed”.

Take “MGHHHHHHSHMGRGKGPAAEEPLSLLDDMNHCYSRLRELVPGVPRGTQLSQVEILQRVIDYILDLQVV”: the protein production result is reported as “not failed”.

Take “EVLPDGVINVLGASNCPSKGIDRGGVIDLDAAVNSIQRAIEQAESVSNCQIMGVTLAISGQHITALNESGVIPLSGTVVRKEDIDAAIHIAHSIKLPDG”: the protein production result is “failed”.

As to “MDKRIATIILSIVNIIGIFEFPLYESFIGFFFISSALSILYESQLSLIVPTVLFASLVLLHIITIQLQKLIILSILMLISIIGKNNKWIYSILITLAPGLIINNLYLLLIVLALLIPLLIKLGGEPRAIIISGILYLIYSGIIFPNNEALANQISQISYFYLMFGIIGIIVEDKRITRITLRKILPYLSFIPASFASIMLGYPSDSSFIYWSASSFYFSHLYLPWIYEIGYNSNQHLIASWFLAYLLTLIIKNPLITAEVFLGIFTFLSGLISYYVFKRLNLKYPLLFSLLYQINIFNPIISHSISVFSYAFLPLVLFFAYNKNKVLYSILTLTAASSIPIFISTLVIPLVYRRYYFLLYALGVNAFWLIPFLIFGYDKFTFNVSNIEILISIILVSISVLLYQLRFKNIEILYMIFISFVLLILGINTGPLILLATILTLGSLRDISILYLTLLSGLIILSATSFSYGVISGYANTTFYTYNLPNLPKPGEYGFGITTLVNDLNLTASGMPTESISYNVRYFIYNSRVIENPLYFGFPIPAIPNYTPQLTFSYIYSNSSVKVIYSPFNKPLGLMVYSNVTPSKISIVFPTRIENISGIKGLVKNYTIQIITNTSLTIIGGKVTVDNKSIFSSYYKPKIVTSIMIGEITEVIDSNYSIYLPIHESLTINGKVVNHPIILPPGKYTIVISDEKIEYVSYASIFLTIVSLVLLIRRGMKV”, the protein production result is “failed”.

As for “MNPLVIKLGGVLLDSEEALERLFTALVTYREKHERPLVIMHGGGCLVDELMKRLALPVVKKNGLRVTPADQIDIITGALAGTANKTLLAWAVKHQINAVGLCLADGNTVTVTLLDAELGHVGKAQPGSAALVQTLLAAGYMPIISSIGITVEGQLMNVNADQAATALAATLGADLILLSDVSGILDGKGQRIAEMTAQKAEQLIAQGIITDGMVVKVNAALDAARSLGRPVDIASWRHSEQLPALFNGVPIGTRISV”, the protein production entry is “not failed”.

For “MQLQVMNSPFNQEQAELLNRLLPTLTESQKIWLSGYLSAQSVSAQEAAGTPAAAVSAEAPAPAVSKEVTVLYGSQTGNAQGLAENAGKQLEQSGFQVTVSSMSDFKPNQLKKVTNLLIVVSTHGEGEPPDNALSFHEFLHGRRAPKLEDLRFSVLALGDSSYEFFCQTGKEFDQRLEELGGKRISPRVDCDLDYDEPAAEWLEGVLKGLNEAGGGSAAPAPAAASQTGESSYSRTNPFRAEVLENLNLNGRGSNKETRHVELSLEGSGLTYEPGDSLGVYPENDPELVELLLKEMNWDPEEIVTLNKQGDVRPLKEALISHYEITVLTKPLLEQAAQLTGNDELRELLAPGNEENVKAYIEGRDLLDLVRDYGPFSVSAQEFVSILRKMPARLYSIASSLSANPDEVHLTIGAVRYDAHGRERKGVCSILCAERLQPGDTLPVYVQHNQNFKLPKDPETPIIMVGPGTGVAPFRSFMQEREETGAEGKAWMFFGDQHFVTDFLYQTEWQNWLKDGVLTKMDVAFSRDTEEKVYVQHRMLEHSAELFEWLQEGAAVYICGDEKHMAHDVHNTLLEIIEKEGNMSREEAEAYLADMQQQKRYQRDVY”, the protein production result is “failed”.

Turning to “MANSETSLQARLWKTLSQSPDVRLWRNNVGTCKAADGRFVRFGLCPGSSDLIGLTRVTITPDMVGQTIALFTAIEVKTPTGRVTPEQQSFIDFVQRSGGRAGVARSMQDANKIISGEGHVLEHHHHHH”, the protein production entry is on record as “failed”.

In the case of “MRERVLFFDLLRCVAAVAVIAIHVLAPYRNELGVIPMDQWLTAVGVNSVTRWAVPVFILITGALMLSDTRPFDGKYYVKRRLGKVLVPFLIWSTFYAYLSGWTAQGFDFETVKEVLSNSPFHATYYHLGFFYYFIPLYFVIPLFQWMARNVDDNVLYTYLAFWMFTSTLFLFKIDGPWSNQMWLYMGYLPLGYVLFQKVPLNRSMVTLFTGFGLVALAVTFTMVVTNSLEAEKYTVGRWLSYKTLNVILAASMIFMLCRYFGEGLPKNVQKVVSFISQHSLGIYLLHPIFLWPMKEFGWYTGHPGWVIPVWIVLSGAGALAMSYLFSKSAKTRWLLP”, the protein production entry is recorded as “failed”.

Take “MRTVVDYGAAIAFGVAYFVTKDFQKATWVLVAASAAALAIGYAVERRLAMLPLFFGGMALVFGTLGLIFGSDVFVKIKVTVINLALASFLVGGVLLKRQPLKVIMGEALHLPDAAWRTLTLRYGAYFAFVAIINEVVRNTQDTDTWVKFRLALLPVALVFVATQLPFMMKHMAKGDDAKAVEPPDAGF”: the protein production result is recorded as “failed”.

“MKKSKHLKRPYLKRSHLKHSDKASSFKGLLKKEDNVISLENFKPKESEDLLENFSNKKDMQELLGLLNQFILQSYKVEKEFKDYKALYEWVIEILPQAIWVVNENGSFFYKNSLANQSHEVFNKAKLENFNTEIEHENKSYLVQQNSIQGKQIITATDISAQKRQERLASMGKISAHLAHEIRNPVGSISLLASVLLKHANEKTKPIVVELQKALWRVERIIKATLLFSKGIQANRTKQSLKTLESDLKEALNCYTYSKDIDFLFNFSDEEGFFDFDLMGIVLQNFLYNAIDAIEALEESEQGQVKIEAFIQNEFIVFTIIDNGKEVENKSALFEPFETTKLKGNGLGLALSLQVVKAHEGSIALLENQEKTFEIKILNAS”: the protein production result is “failed”.

Consider “RYTNILVPVDSSDAAQAAFTEAVNIAQRHQANLTALYVVDDSAYHTPALDPVLSELLDAEAAHAKDAMRQRQQFVATTSAPNLKTEISYGIPKHTIEDYAKQHPEIDLIVLGATGTNSPHRVAVGSTTSYVVDHAPCNVIVIR”, for which the protein production result was “not failed”.

For the sequence “MPLPPSNGMGTAALVLGIISTVVFCLWPLAIVMGVLSVVFGVIGRRRARRGEATNAGQALAGIICGAVGIVLGVAFMVIIFAAAESSSDPWSTTDDSYSTSLVVHADR”, the protein production result was “failed”.

Consider “MVMMSKQLTAQAPVDPIVLGKMGSSYGIRGWLRVFSSTEDAESIFDYQPWFIQKAGQWQQVQLESWKHHNQDMIIKLKGVDDRDAANLLTNCEIVVDSSQLPQLEEGDYYWKDLMGCQVVTTEGYDLGKVVDMMETGSNDVLVIKANLKDAFGIKERLVPFLDGQVIKKVDLTTRSIEVDWDPGFLEHHHHHH”, for which the protein production entry is reported as “failed”.
